The text below walks through data of patent CN104774268A.

Test [1] deals with EGFR on EGFR-positive cells (HT29; HCT116; MDA-MB-453) (human) (UniProt P00533). Description: flow cytometry on HT29 cells, MFI titration fitted in GraphPad Prism. (In general: Flow cytometry measures light scatter and fluorescence of single cells or particles in a stream.)
Test [2] concerns the target CD3 on CD3-positive Jurkat cells (human). Briefly: flow cytometry on Jurkat cells, MFI titration fitted in GraphPad Prism.

Consider “EGFR×CD3 MSBODY M1001 (monovalent unit from Erbitux, single-chain unit anti-CD3 L2K ScFv-Fc) (bispecific antibody)”, for which the Kd (as a rule, the concentration at which binding is half-saturated) in test [1] came to 0.65 nM; in test [2], 8.73 nM.
“EGFR×CD3 MSBODY M1003 (monovalent unit from Vectibix, single-chain unit anti-CD3 L2K ScFv-Fc) (bispecific antibody)”: the Kd in test [1] was 0.65 nM; in test [2], 14.4 nM.
